From paper PMC4245933
Positions count from the first letter of the chain named.

B1: 100nt RNA (ssRNA)
RNA: GGGCGAAUUGGGCCCGACGUCGCAUGCUCCCGGCCGCCAUGGCGGCCGCGGGAAUUCGAUUAGUUCCCCUAAUAAUCGGUGCCCCCGAUAUGGCGUUUA

How the values were obtained:
His-KDM4D-FL-1H4R-HRK = target: T1, His-KDM4D-FL-1H4R-HRK (human, UniProt Q6B0I6 1-523, H115A;R123A;K127A;H219A;R222A;R225A;R228A;R236A); assay: EMSA
T1 sequence: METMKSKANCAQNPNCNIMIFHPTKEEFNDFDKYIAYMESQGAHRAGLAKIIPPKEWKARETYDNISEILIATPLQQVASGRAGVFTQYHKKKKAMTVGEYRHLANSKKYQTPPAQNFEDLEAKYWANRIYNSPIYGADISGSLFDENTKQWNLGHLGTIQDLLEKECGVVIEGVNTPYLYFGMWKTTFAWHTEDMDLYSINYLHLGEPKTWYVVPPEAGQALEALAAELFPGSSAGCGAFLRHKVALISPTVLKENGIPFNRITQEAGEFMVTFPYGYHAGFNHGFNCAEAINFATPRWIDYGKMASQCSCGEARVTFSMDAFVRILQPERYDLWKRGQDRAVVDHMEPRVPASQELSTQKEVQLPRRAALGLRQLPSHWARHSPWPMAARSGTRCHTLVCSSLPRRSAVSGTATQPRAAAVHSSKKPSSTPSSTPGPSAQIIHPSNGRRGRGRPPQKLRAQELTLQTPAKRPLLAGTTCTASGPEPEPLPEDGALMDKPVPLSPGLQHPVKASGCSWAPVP

His-KDM4D-FL [1] = target: T2, His-KDM4D-FL (human, UniProt Q6B0I6 1-523); assay: EMSA
T2 sequence: T1 sequence with A115H, A123R, A127K, A219H, A222R, A225R, A228R, A236R

GST-KDM4D348-523 = target: T3, GST-KDM4D348-523 (human, UniProt Q6B0I6 348-523); assay: EMSA
T3 sequence: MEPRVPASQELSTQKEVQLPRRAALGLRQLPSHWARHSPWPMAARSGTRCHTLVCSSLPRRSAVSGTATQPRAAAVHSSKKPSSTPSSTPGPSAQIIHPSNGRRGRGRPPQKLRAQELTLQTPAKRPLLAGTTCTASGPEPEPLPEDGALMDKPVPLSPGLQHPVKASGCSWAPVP

His-KDM4D1-350 [2] = target: T4, His-KDM4D1-350 (human, UniProt Q6B0I6 1-350); assay: EMSA
T4 sequence: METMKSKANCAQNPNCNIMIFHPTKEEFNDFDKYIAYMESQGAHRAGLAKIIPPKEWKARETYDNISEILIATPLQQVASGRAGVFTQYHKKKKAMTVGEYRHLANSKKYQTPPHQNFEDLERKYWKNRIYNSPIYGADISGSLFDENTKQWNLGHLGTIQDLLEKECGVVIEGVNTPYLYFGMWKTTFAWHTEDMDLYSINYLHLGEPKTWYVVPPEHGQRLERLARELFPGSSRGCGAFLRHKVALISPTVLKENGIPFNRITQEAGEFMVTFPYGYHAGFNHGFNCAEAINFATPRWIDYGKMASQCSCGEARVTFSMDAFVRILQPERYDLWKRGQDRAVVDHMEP

His-KDM4D-N202M = target: T5, His-KDM4D-N202M (human, UniProt Q6B0I6 1-523, N202M); assay: EMSA
T5 sequence: T1 sequence with A115H, A123R, A127K, N202M, A219H, A222R, A225R, A228R, A236R

His-KDM4D-FL [3] = target: T2, His-KDM4D-FL; assay: fluorescence anisotropy
His-KDM4D1-350 [4] = target: T4, His-KDM4D1-350; assay: fluorescence anisotropy
His-KDM4D1-350-1H4R-HRK = target: T6, His-KDM4D1-350-1H4R-HRK (human, UniProt Q6B0I6 1-350, H115A;R123A;K127A;H219A;R222A;R225A;R228A;R236A); assay: fluorescence anisotropy
T6 sequence: T4 sequence with H115A, R123A, K127A, H219A, R222A, R225A, R228A, R236A

| Binder | Kd (His-KDM4D-FL-1H4R-HRK) [nM] | Kd (His-KDM4D-FL [1]) [nM] | Kd (GST-KDM4D348-523) [nM] | Kd (His-KDM4D1-350 [2]) [nM] | Kd (His-KDM4D-N202M) [nM] | Kd (His-KDM4D-FL [3]) [nM] | Kd (His-KDM4D1-350 [4]) [nM] | binding result (His-KDM4D1-350-1H4R-HRK) |
| --- | --- | --- | --- | --- | --- | --- | --- | --- |
| B1 | > 100 | ~20 | > 100 | ~80 | ~15 |  |  |  |
| GGGCGAAUUGGGCCCGACGUCGCAUGCUCCCGGCCGC (ssRNA) [37nt RNA] |  | < 50 |  |  |  |  |  |  |
| UUAACACAAAAUACGCACCCCA (ssRNA) [22nt RNA (RNAF-22)] |  |  |  |  |  | ~126 | ~1220 | no binding |
